Experimental data as given in patent US6602687B1, “DNA encoding human ciliary neurotrophic factor and method for producing the protein encoded thereby” (Regeneron Pharmaceuticals, Inc., priority 1989, dated 2003).
Several values for one entry are separate records, joined by “and”; a condition that tells them apart may be missing. Equal values may be shown once. Read-outs that look alike come from different tables or passages of the source.

Experiments:
[1] = tested on: motorneurons in the facial nerve nuclei; assay: Unilateral facial nerve lesion in newborn rat with gelfoam implant, motorneuron count; format: in vivo
Procedure: The facial nerves of newborn rat pups were sectioned unilaterally and small gelfoam implants containing either 5 μg bovine serum albumin or 5 μg CNTF were placed at the lesion sites. […] After one week, the animals were sacrificed and sections of their brainstem, containing a facial nerve nucleus on the same side as the lesioned nerve (ipsilateral to the lesion) and a facial nerve nucleus on the side opposite to the lesion (contralateral to the lesion) were produced. The contralateral facial nucleus served as an internal control. Facial nucleus sections were stained with either Nissl stain (to stain motorneurons) or with antibody to glial fibrillary acidic protein (to detect the respose of glial cells to injury).

[2] = tested on: chick embryonic spinal motorneurons; assay: Survival of chick embryonic spinal motorneurons in culture; format: cell-based
Procedure: Motorneuron columns were dissected under a stereomicroscope from the lumbar part of the spinal cord of chick embryos on the 6th day of embryonic development and stored in cold calcium and magnesium-free Hanks balanced salt solution supplemented with glucose (4 g/l) (HBSS). The tissues were washed with HBSS and treated with 0.03% trypsin in HBSS at 37° C. for 20 min with gentle shaking, rinsed with cold HBSS and triturated mildly in 3 steps of 8-passage agitation in 1 ml of cold 0.1% soybean trypsin inhibitor (Sigma) in HBSS through a fire-polished siliconized Pasteur pipette. Each supernatant cell suspension was filtered through 50 μm-Nylon mesh, pooled and layered onto 4 ml of cold 6.8% metrizamide (Fluka) in HBSS-25 mM HEPES (pH7.4) in a 12 ml-siliconized conical glass tube. The tube was centrifuged at 400 g for 15 min at 4° C. and the intermediate layer (0.5 ml) was collected into another siliconized tube containing 6.5 ml of cold culture medium (a mixture of glucose (4 g/l)-supplemented Leibovitz's L-15 medium (Gibco), 0.15 M sodium bicarbonate, heat-inactivated and filtered horse serum and penicillin G (10^5 units/ml) at the ratio of 75:15:10:0.1, freshly prepared and buffered with 5% CO2.) After centrifugation at 100×g for 7 min at 4° C., the supernatant was removed and the cells were gently resuspended in culture medium and plated in Greiner 4-well culture dishes (well diameter, 10 mm; C. A. Greiner und Sohne GmbH, Nurtingen, West Germany) at 1000-2000 cells/well. The dishes had been precoated with poly-DL-ornithine (Sigma, 0.5 mg in 0.15 M sodium borate buffer (pH 8.3) overnight at 4° C., rinsed twice with phosphate-buffered saline (PBS) and subsequently coated with laminin (Gibco; 10 μg/ml in the serum-depleted culture medium) and placed in a 5% CO2-incubator until cell plating (5-6 hrs). Cells were incubated at 37° C. in a humidified 5% CO2- and 95% air-incubator. Samples were added one hr after plating and the culture medium changed after 24 hrs and 72 hrs. The initial cell numbers were counted 3 hrs after plating.
In some experiments motor neurons were retrogradely labeled with a fluorescent dye in vivo before cell preparation (U. Dohrman et al., 1986, Dev. Biol. 118:209-221) to identify the motor neuron cell population. A small hole was made in the shell of eggs which had been incubated for 5 days. Small pieces of rhodamine isothiocyanate crystals (Sigma) were inserted at two or three places into each hind limb thigh and the egg hole was sealed with a cellophane tape. The eggs were incubated for another 24 hrs. Some of the operated embryos were then processed for frozen sections after formaldehyde fixation. […] The other embryos were used for cell preparation using the method described above (18.1.1). After 5 hrs in culture cells were rinsed with warm HBSS, fixed with 4% formaldehyde in PBS at room temperature for 20 min, rinsed with PBS and then mounted in glycerol-PBS (1:1) with glass coverslips. Of the total cells approximately 83% were labeled and identified as motorneurons (FIG. 42.) Most of these labeled motorneurons were large cells and the rest were intermediate-size cells. No small cells were labeled. On the other hand, in experiments in which cells were not labeled with a fluorescent dye about 70% of the total cells were large phase-bright cells with round cell somas, about 20% were intermediate-size neurons (most of them may be motorneurons) and about 10% were small immature neurons (they have neuron-like processes with growth cones but have phase-dark semi-flat cell somas). Non-neuronal cells were either not present or accounted for less than 2%. Taken together, one may conclude that at least 83% of the cells are motorneurons while the remainder consists of non-labeled motorneurons, a small number of unidentified intermediate-size neurons and about 10% immature small neurons. […]

[3] = tested on: Mediodorsal (MD) spinal cord neurons; assay: E14 rat mediodorsal spinal cord neuron cultures in defined medium; format: cell-based
Excerpt: (§1) Sprague-Dawley rats (HSD) were used for all experiments. Pregnant rats were sacrificed by carbon dioxide asphyxiation, and the embryos were rapidly removed and placed in ice-cold Puck's saline G for further dissection.
(§2) Spinal cords were removed aseptically from rat embryos on the 14th day of gestation. The spinal cord was severed caudal to the bulb, freed of sensory ganglia and meninges. The cord was then subdivided into ventral and mediodorsal segments for separate cultures. The cord tissues were minced into small pieces and mechanically dissociated by trituration through a Pasteur pipet in defined culture medium consisting of 50% basal medium Eagle (BME; Gibco) and 50% Ham's nutrient mixture F12 (Gibco) supplemented with glucose (33 mM), glutamine (2 mM, NaHCO3 (15 mM), HEPES (10 mM), insulin (25 μg/ml), transferrin (100 μg/ml) putrescine (60 μM), progesterone (20 nM), Na selenite (30 nM), penicillin G (0.5 μg/ml), streptomycin (0.5 μg/ml), and bovine serum albumin (2.5 μg/ml). Trituration was repeated twice and the supernatants were pooled and filtered through a nylon (Nitex, Tetko) filter (40 μm). Total cell number yielded was determined by hemocytometer counting in the presence of trypan blue. Dissociated ventral cells were then plated at a density of 0.5 million cells/35 mm dish coated with poly-D-lysine (10 μg/ml). Dissociated mediodorsal cells were plated at a density of 1.5 million/35 mm dish coated with poly-D-lysine (10 μg/ml), poly-L-ornithine (10 μg/ml), or poly-L-ornithine with laminin (5 μg/ml). Treatments to these cultures were added at the time of plating. Cultures were maintained at 37° C. in a 95% air/5% CO2 atmosphere at nearly 100% relative humidity. Culture medium was changed every three to four days.

[4] = tested on: Ventral spinal cord neurons; assay: E14 rat ventral spinal cord neuron cultures in defined medium; format: cell-based; settings: CNTF 2 μl/ml
Excerpt: as §1, §2

[5] = gelfoam implant impregnated with CNTF, one week
[6] = gelfoam with 5 μg purified rat sciatic nerve CNTF, one week after lesion
[7] = single animals, gelfoam with 5 μg purified rat sciatic nerve CNTF, one week after lesion

B1: CNTF: ciliary neurotrophic factor; recombinant rat CNTF in Sections 10, 15, 17, purified rat sciatic nerve CNTF in Section 11; see endpoint conditions (protein, UniProt P20294 1-200, looked up)
Ciliary neurotrophic factor: MAFAEQTPLTLHRRDLCSRSIWLARKIRSDLTALMESYVKHQGLNKNINLDSVDGVPVASTDRWSEMTEAERLQENLQAYRTFQGMLTKLLEDQRVHFTPTEGDFHQAIHTLMLQVSAFAYQLEELMVLLEQKIPENEADGMPATVGDGGLFEKKLWGLKVLQELSQWTVRSIHDLRVISSHQMGISALESHYGAKDKQM
For B1, the “facial nerve motorneurons rescued that would normally have died after axotomy” value ([1]; CNTF applied to cut stump of newborn rat facial nerve) was “at least 60%”, the “loss of motorneurons ipsilateral to the lesion” value [1, 5] was roughly 30% and the “motorneuron pool ipsilateral to the lesion, of normal” value [1, 5] was 70%. For the same molecule, the “gliosis in facial nuclei ipsilateral to lesion (anti-GFAP staining), versus BSA treated rats” value ([1]; gelfoam with 5 μg CNTF) was “comparable amount of gliosis”, the “Count of motorneurons in the facial nerve nuclei, Contralateral (Control side), group mean (in brackets)” value [1, 6] was “(3301)” and the “Count of motorneurons in the facial nerve nuclei, Lesion-side, group mean (in brackets)” value [1, 6] was “(2120)”. The “Count of motorneurons in the facial nerve nuclei, Contralateral (Control side)” value [1, 7] was 3425 and 2990 and 3490, the “Count of motorneurons in the facial nerve nuclei, Lesion-side” value [1, 7] was 2205 and 3445 and 1270 and 3095 and the “concentration at which the highest survival effect was obtained” value ([2]; 3 days in culture) was 1 ng/mL. For the same molecule, the “highest survival effect of the concentration-response curve” value ([2]; 3 days in culture, CNTF = recombinant rat) was 64%, the “Motoneuron survival (%)” value ([2]; after 3 days in culture, mean ± SEM (n = 4), IGF-I 1 μg/ml, Basic FGF 30 ng/ml, CNTF 1.5 ng/ml) was 60.7 ± 5.8% and the Survival ([2]; after 3 days in culture, one concentration per molecule, Table VI, CNTF rat, rec.) was “+ + +”. For the same molecule, the EC50 ([2]; motorneuron survival, 3 days in culture) was 0.023 ng/mL, the “EC50 (the concentration required for 50% survival)” value ([2]; recombinant rat CNTF, day 3) was “about 20 pg/ml” and the EC50 ([2]; recombinant rat CNTF, day 3, read-out: EC50 (the concentration required for 50% survival)) was roughly 1 pM. For the same molecule, the “survival of MD neurons” value ([3]; 20 ng recombinant rat CNTF in 2 μl E. coli extract per ml at plating, by 48 hours) was “increased survival”, the μg protein dish ([3]; CNTF 2 μl/ml (recombinant rat, E. coli extract), NGF 50 ng/ml at plating, day 7, Bradford) was 120 μg protein dish and the “protein/dish relative to untreated control and NGF-treated cultures” value ([3]; recombinant rat CNTF in E. coli extract, day 7) was 6 times. For the same molecule, the “time ventral neurons survive in defined medium” value [4] was greater than 1 week, the “CAT Activity” value ([4]; NGF 50 ng/ml at plating, day 7) was 959.5 ± 24.32 CPM/dish and the Protein ([4]; NGF 50 ng/ml at plating, day 7) was 45 μg/dish.
